Drawing on article PMC7703590, this text covers avidity and koff for 2 substances.

The assay has as its target SARS-CoV-2 RBD-Fc (SARS-CoV-2) (UniProt P0DTC2). As to the kind of experiment: BLI. In general terms: Biolayer interferometry detects binding as a change in optical thickness at a sensor tip.

IgG1 ab1 (antibody) came in with an avidity of 160 pM.

As a reminder, the koff is the first-order rate constant of dissociation. Higher therefore signals fast dissociation. In turn, IgG1 ab1 (from UniProt P01857) yielded a koff of 4e-05 s⁻¹.
